Experimental data from patent US20120021995A1 (published 2012).
Positions count from the first letter of the chain named. Values belong to the binder of their own block, whether it stands above or below them.

How the values were obtained:
[1] = target: T1, DR4 (TRAIL-R1) on cancer cells (human, UniProt O00220 24-468); assay: cell-based or functional assay
T1 sequence: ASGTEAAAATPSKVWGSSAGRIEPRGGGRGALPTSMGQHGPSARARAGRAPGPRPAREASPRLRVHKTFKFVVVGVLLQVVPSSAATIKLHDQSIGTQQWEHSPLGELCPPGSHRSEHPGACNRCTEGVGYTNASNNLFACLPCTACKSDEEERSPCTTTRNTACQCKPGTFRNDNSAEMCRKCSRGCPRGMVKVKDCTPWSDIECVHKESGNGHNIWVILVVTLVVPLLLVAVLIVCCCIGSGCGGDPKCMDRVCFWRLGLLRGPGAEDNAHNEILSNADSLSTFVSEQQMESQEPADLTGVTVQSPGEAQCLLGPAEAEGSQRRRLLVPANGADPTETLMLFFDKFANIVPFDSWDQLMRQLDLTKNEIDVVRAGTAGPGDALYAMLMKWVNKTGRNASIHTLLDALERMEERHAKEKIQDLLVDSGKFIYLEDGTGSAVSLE

[2] = target: T1, DR4 (TRAIL-R1) on cancer cells; assay: cell-based or functional assay; remark: listed apart in the source
[3] = target: T1, DR4 (TRAIL-R1) on cancer cells; assay: cell-based or functional assay; remark: listed apart in the source
[4] = target: T2, recombinant human TRAIL R1 (DR4)/Fc chimera (human, UniProt O00220 24-239); assay: SPR (Biacore), ATRIMER
T2 construct: bought (R&D Systems); not shown: Fc of the bought chimera (R&D Systems)
T2 sequence: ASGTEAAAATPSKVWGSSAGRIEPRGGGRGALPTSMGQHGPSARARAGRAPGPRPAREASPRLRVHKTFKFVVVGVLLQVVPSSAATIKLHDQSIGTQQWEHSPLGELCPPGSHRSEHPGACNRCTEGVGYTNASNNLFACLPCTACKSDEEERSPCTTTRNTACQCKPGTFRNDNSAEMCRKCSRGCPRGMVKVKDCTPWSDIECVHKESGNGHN
Protocol: Immobilization of an anti-human IgG Fc antibody (Biacore) to the CM5 chip (Biacore) was performed using standard amine coupling chemistry and this surface was used to capture recombinant human DR4 or DR5 receptor Fc fusion protein (R&D Systems). ATRIMER™ dilutions (1-500 nM) were injected over the DR4 and DR5 receptor surface at 30 μl/min and kinetic constants were derived from the sensorgram data using the Biaevaluation software (version 3.1, Biacore). Data collection was 3 minutes for the association and 5 minutes for dissociation. The anti-human IgG surface was regenerated with a 30 s pulse of 3 M magnesium chloride. All sensorgrams were double-referenced against an activated and blocked flow-cell as well as buffer injections.
Clones were then sub-cloned into pANA19 for expression and purification as described above. Cell killing activity was measured as described above, and binding affinity was measured by Biacore.

[5] = target: T1, DR4 (TRAIL-R1) on cancer cells; assay: cell-based or functional assay; remark: listed apart in the source

B1: 71p88P1A3 (designed binder)
chain: EPPTQKPKKIVNAKKDVVNTKMFEELKSRLDTLAQEVALLKEQQALQTVCLKGTKVHMKCFLAFTQTKTFHEASEDCISRGGTLSTPQTGSENDALYEYLRQSVGNEAEIWLGLNGYLAGTGWVDMTGARIAYKNWETEITAQPDGGRVLAWENCAVLSGAANGKWFDKRCRDQLPYICQFGIV
Colo205 % killing (% of TRAIL activity) [1]: -7%
H2122 % killing (% of TRAIL activity) [1]: -3%
ST486 % killing (% of TRAIL activity) [1]: 41%
ED50 ST486 (cell killing) [2]: 170 nM

Kd [4]: 1.85 nM
koff [4]: 0.000571 s⁻¹
kon [4]: 141000 M⁻¹ s⁻¹
B2: 119p94P1C1 (designed binder)
chain: EPPTQKPKKIVNAKKDVVNTKMFEELKSRLDTLAQEVALLKEQQALQTVCLKGTKVHMKCFLAFTQTKTFHEASEDCISRGGTLSTPQTGSENDALYEYLRQSVGNEAEIWLGLNGWLEGVGWVDMTGARIAYKNWAISDERQPDGGWPFSNENCAVLSGAANGKWFDKRCRDQLPYICQFGIV
notes: ATRIMER from pANA19
ED50 (nM) ST486 (cell killing) [3]: 251 nM

Kd [4]: 2.82 nM
koff [4]: 0.00052 s⁻¹
kon [4]: 185000 M⁻¹ s⁻¹
B3: 119p94P1B4 (designed binder)
chain: B2 chain with I138E, S139V, D140P, E141F, R142F
notes: ATRIMER from pANA19
ED50 (nM) ST486 (cell killing) [3]: 127 nM

Kd [4]: 0.16 nM
koff [4]: 2.21e-05 s⁻¹
kon [4]: 138000 M⁻¹ s⁻¹
B4: 119p83P1H4 (designed binder)
chain: B2 chain with A137S, I138K, S139V, D140R, E141L, R142E
notes: ATRIMER from pANA19
ED50 (nM) ST486 (cell killing) [3]: 0.13 nM

Kd [4]: 1.31 nM
koff [4]: 0.000542 s⁻¹
kon [4]: 400000 M⁻¹ s⁻¹
B5: 119p94P1D8 (designed binder)
chain: B2 chain with A137G, I138W, S139M, E141S, R142K
notes: ATRIMER from pANA19
ED50 (nM) ST486 (cell killing) [3]: 30.5 nM

Kd [4]: 2.41 nM
koff [4]: 0.0007 s⁻¹
kon [4]: 349000 M⁻¹ s⁻¹
B6: 119p94P1G7 (designed binder)
chain: B2 chain with A137G, I138W, D140A, E141R, R142V
notes: ATRIMER from pANA19
ED50 (nM) ST486 (cell killing) [3]: 25.5 nM

Kd [4]: 1.42 nM
koff [4]: 0.000329 s⁻¹
kon [4]: 221000 M⁻¹ s⁻¹
B7: 119p83P1H1 (designed binder)
chain: B2 chain with A137T, I138Q, S139R, D140H, E141S, R142G
notes: ATRIMER from pANA19
ED50 (nM) ST486 (cell killing) [3]: 13 nM

B8: 71p88P1F2 (designed binder)
chain: B1 chain with Y117W, A119E, T121S, R148F, V149P, L150A, A151R
Colo205 % killing (% of TRAIL activity) [1]: -18%
H2122 % killing (% of TRAIL activity) [1]: -5%
ST486 % killing (% of TRAIL activity) [1]: 58%
ED50 ST486 (cell killing) [2]: 168 nM

Kd [4]: 2.96 nM
koff [4]: 0.000892 s⁻¹
kon [4]: 125000 M⁻¹ s⁻¹
B9: 119p94P1F4 (designed binder)
chain: B2 chain with I138A, S139V, D140T, E141M, R142E
notes: ATRIMER from pANA19
ED50 (nM) ST486 (cell killing) [3]: 308 nM

Kd [4]: 1.11 nM
koff [4]: 0.000406 s⁻¹
kon [4]: 360000 M⁻¹ s⁻¹
B10: 119p94P1B5 (designed binder)
chain: B2 chain with I138R, S139H, D140I, E141N, R142E
notes: ATRIMER from pANA19
ED50 (nM) ST486 (cell killing) [3]: 6.6 nM

B11: 71p88P1B3 (designed binder)
chain: B1 chain with Y117W, A119E, T121S, R148V, V149Q, L150W, A151R
Colo205 % killing (% of TRAIL activity) [1]: 42%
H2122 % killing (% of TRAIL activity) [1]: 0%
ST486 % killing (% of TRAIL activity) [1]: 88%
ED50 ST486 (cell killing) [2]: 3.2 nM

B12: 65p114P1A3 (designed binder)
chain: EPPTQKPKKIVNAKKDVVNTKMFEELKSRLDTLAQEVALLKEQQALQTVCLKGTKVHMKCFLAFTQTKTFHEASEDCISRGGTLSTPQTGSENDALYEYLRQSVGNEAEIWLGLNGWLEGSGWVDMTGARIAYKNWADPKWSQPDGGVQWRWENCAVLSGAANGKWFDKRCRDQLPYICQFGIV
EC50 Colo205 (cell killing) [5]: 0.11 nM
EC50 ST486 (cell killing) [5]: 0.05 nM

B13: 65p114P1B2 (designed binder)
chain: B12 chain with A137F, D138H, P139D, K140R, W141F, S142N
EC50 Colo205 (cell killing) [5]: 0.18 nM
EC50 ST486 (cell killing) [5]: 0.09 nM
